Measured values as given in the nanobody polyreactivity screen of Harvey et al. (2022).

assay: yeast display, Sf9 membrane polyspecificity reagent, FACS + sequencing; frameworks hold sequencing errors
How it was run: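 Galactose-induced (36–48 hours) yeast carrying a synthetic nanobody display library were exposed to 10% biotinylated, detergent-solubilized Sf9 membrane reagent at 4 °C for 1 hour. FACS followed streptavidin microbead enrichment, using low and high (top ~1%) gates for expression (anti-HA) and reagent binding (streptavidin). Colony PCR, MiSeq 2 × 250 sequencing and CDR-length filtering followed. Labels for polyreactivity reflect the gate of origin.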

Sequence	polyreactivity (PSR sort gate)
QFQHVESGGGLVQAGGSLRLSCAASGSTFGLYAMGWYRQAPGKERELVADITWSGGSTYYADSVKGRFTISRDNAKNTVYLQMNSLKPEDTAVYYCAARYPWVYYDFDYWGLGTQVTVSS	low polyreactivity
QFQHVESVGGLVQAGGSLRLSCAASGRIFPYYALGWYREAPGKERELVAAISQSDGSTYYADSVKGRFTISRDNAKNTVYLQMNSLKPEDTAVYYCAKRQASYTQHRKVRGDYWGQGPQVTVSS	low polyreactivity
QFQIVESGGGLVQAGGSLRLSCAASGSIFTQYAMGWYRQAPGKERELVAAITSGGSTYADSVKGRFTISRDNAMNTVYLQMKSLKPEDTAVYYCATPYSYRGVTFNYWGQGTQVTVSS	low polyreactivity
QFQIVESGGGLVQAGGSLRLSCAASGYTFTGNAMGWYRQATGKEREFVAGITWRTGRTYYADSVKGRFTISRDNAKNSVYVLMNSLKPEDTAVYYCNKDHQRRYFWSYDYWGQGTLVTVSS	low polyreactivity
QFQLAESGGGLVQAGGSLRLSCAASGFTFRDYAMGWSRQATGKERELVATISWRGGSTYYADSVKGRFTISRDNAKNTVYLQMNSLKPEDTAVYYCAKRPYQRSVPYGKYDYWGQGTQVTVSS	low polyreactivity
QFQLEESAGGLVQAGGSLRLSCAASGRTFADYAMGWYRPAPGKETELVAAISSGGSTYFAVSVKGRFTISRDNAKNTVYLQMNSLKPEDTAVYYCTARWGYRLGYWGQGTQVTVSS	high polyreactivity
QFQLEESGGGLVQAGGSLRLSCAASGPIFSYNAMGLSRQATGKERELVARINWSSGRTYYADSVKGRFTISRDNAKNTVYLQMNSLKPEDTAVYYCNRVSRGPVGGYYWGQGTQVTESS	high polyreactivity
QFQLEESGGGLVQAGGSLRLSCAASGSTFGDYAMGWYRQAPGKERVLVAAINFSDGSTYYADSVKGRFTISRDNAKNTVYLQMNSLKPEDSAVYYCAKQGYLVWSGWRWYDYWGQGTQGTVSS	low polyreactivity
QFQLEESRGGLVQAGGSLRLSCAASGRIFDLYAMGWYRQAPGKETELVATISGSGGSTYYADSVKGRFTISRDNAKNTVYLQMNSLKPEDTAVYYCAAVSVSSWYDYWGQGTQVTVSS	low polyreactivity
QFQLLESGGGLVHAAGSLRLSSAASVSNFLSNAMGWYRQAPGKETELVAAITTSGTSTFYADSVKGRFTSSRDNAKNTVYLHINSLTPEDTEVYCAKDYLPYLHFVAPSTGDYDYWGQGTQVTVSS	low polyreactivity
QFQLLESGGGLVQAAGSLRLSCAASGGIFRNYAMGWYRKAPGKERELVAAITSSGTSTYYADSVNGRFTISRDNAKNTVYLQMNSLKPEDTAVYYFAADVTARYDYWGQGTQVTVSS	high polyreactivity
QFQLQESGGGLVQAGGTLRLSCAASGSIFYVYGKGWYRQAPGKERELVAGINAGTNTNYADSVRGRFTISRDNAKNTVHLQMNSQKPVDTAVYYCAADGNGYQAHEYWGQGTQVTVSS	high polyreactivity
QFQLVDSGRGLVQAGGSLRVSCAASGITFAYYAMGWYRQAPGKERELVAAISRSGGGTYYADSVKGRFTISRDNAKNPVYLQMNSLKPEDTAVYYCNKDYPYYYAGDGRFDYWGQGTQVTVSS	high polyreactivity
QFQLVDSRGGLVQAGGSLRLSCAASGAIFGGYAMGWYRTAPGKARELVAGSTRSGGSTYYADSVKGRFTISRDNPKNTVYLQMNSLKPEDTAVYYCAVEIQFYRSPRIVRSYDYWGHGTQVTVSS	low polyreactivity
QFQLVDSRRGLVQAGGSLRVSCAASGSTFYIYAMGWSRQAPGKERELVARISGSGGSTYYADSVKGRFTISRDNAKNTVYLQMNSLKPEDTAVYYCAADDIYKYYQYYAFPYYRYDDWGQGTQVTVSS	low polyreactivity
QFQLVESGGCLVQAGCSLRLSCAASGFIIFSNAMGLYRQAPGKERELVAAISRIGVSTFYADSVKGRLTISRDNAKNTVYLQMNSLKPEDTAVYYCNKSNPDYDGLAIHAFDYWGQGTQVTVSS	low polyreactivity
QFQLVESGGGFVQAGGSLRLSCAASGRTFYPYAMGLYRQAPGKERELVAAISSSGGSTYYADSVKGRFTISRDNAKNTVYLQMNSLKPDDTAVYYCAAVASKYKYTGGMDYWGQGTQVTVSS	high polyreactivity
QFQLVESGGGILQAGGSLRLSCAASGFIFSSYAMGWYRQAPGKERELVAAISKRGGSTYYADSVKGRFTISRDNAKNTVYLQMNSLKPEDTAVYYCARGSYPYRSFWLTSDYWGQVTQVTVSS	high polyreactivity
QFQLVESGGGIVQAGGSLRLSCAASGFTFVYYAMGWYRQAPGKERQLVAAITRSAGSTYYADSVKGRFTISRDNAKNTVYLQMNSLKPEDTAVYYCAALNSRYSKAQRMDYWGQGTQVTVSS	low polyreactivity
QFQLVESGGGLDQAGGSLRLSCAASGSIFYYNAMGWYRQAPGKERELVAAIDLNDGITYYADSVKGRFTISRDNAKNTVYLQMNSLKPEDTAVYYCAADSYYFLYDSWGQGTQVTVSS	high polyreactivity
QFQLVESGGGLDQAGGSLRLTCAASGLTIRWYAMGWYRQAPGKERELVAAIRWSGGSTYYADSVKGRFTISRDNAKNTVYLQMNSLKPEDTALYYCAARFLGYQSGTERDYWGQGTQVTVSS	high polyreactivity
QFQLVESGGGLLQAGGSLRLSCADSGFIFCEYAMGWYRQAPGKERELVAAITWSGGRTYYADSVKGRFTISRDNAKNTVYLQMNSLKTEDTAVYYCSAYGSFWYAGFGYWGQGTQVTVSS	low polyreactivity

Sequence	polyreactivity (PSR sort gate)
QFQLVESGGGLVPAGGSLRLSCAASGRIFTGNAMGWSRQAPGKERELVASITYSDGSTYYADSVKGRFTISRDNATNTVYLKMNSLKPEDTAVYYCAADIRWGQGTQVTVSS	low polyreactivity
QFQLVESGGGLVQAGASLRLSCAASGSTFVRYAMGWYRQAPGKERDLVAAITWTGGITYYADSVKGRFTISRDNAKNTVYLHMNSLKPEDTAVYYCIAEQKQYEKSYDYWGQGTQVTVSS	low polyreactivity
QFQLVESGGGLVQAGGRLRLSCAASGVIFSYYAMGCYRQAPGKERELVAAISSSGSRTYYADSVKGRFTISRDNAKNTVYLQMNRLKPEDTAVYYCAARGAAKYGYWGQGTQVTVSS	high polyreactivity
QFQLVESGGGLVQAGGRLRLSCAASRSTFVLYDMGWYRQAPGKERELVAAISRSGDSTYYADSVKGRYTISRDNAKNTVYLQMNSLKPEDTAVYYCAAKRRISTGMDYWGQGTQVTVSS	high polyreactivity
QFQLVESGGGLVQAGGSLRLSCAASGFIFSNNAMGWYRQAPGKDRELVAAISKSGGGTSYADSVKGRFTISRDNAKNTVYLQMNSLKPDDTAVYYCAKEWRKKTDYDYWGQGTQVTVSS	high polyreactivity
QFQLVESGGGLVQAGGSLRLSCAASGFIFYKYAMGGYRQAPGKERELVAAISSGGSPYYADSVKGRFTISRDNAKNTVYLQMNSLKPEDTAVYYCNKVYRSYRSGFYGGDYWGQGTQVTVSS	high polyreactivity
QFQLVESGGGLVQAGGSLRLSCAASGFIIKFYAMGLYRQAPGKERELVATITFSSGTTYYADSVKGRFTISRDTAKNTVYLQLNSLKPEDTAVYYCAAERGVDDSARNGDYDYWGQGTQVTVSS	low polyreactivity
QFQLVESGGGLVQAGGSLRLSCAASGFTFDFYAMGWYRQAPGKERELVAAISKNDGTTYYADSVKGRFTISRDNAKNTVYLQMNSLKQEDTAVYYCAAPNWRDYYSSGQGTQVTVSS	low polyreactivity
QFQLVESGGGLVQAGGSLRLSCAASGFTFDGYAMGWYRQAPGKERELVAAISDSGDSTYYADSVKGRFTISRDNAKITVYLQMNSLKPEDTAVYYCAAGLGYYWSDYFAYDYWGQGTQVTVSS	low polyreactivity
QFQLVESGGGLVQAGGSLRLSCAASGFTFPYNGMGWYRQAPGKERELVAAISYGGGGKYYADSVKGRFTISRDNAKNTVYLQMNSLKPEDTAVYYCATDDPLSQINEQGMDYWGQGTQVTVSS	low polyreactivity
QFQLVESGGGLVQAGGSLRLSCAASGGTLYIYAMGWYRKAPGKERELVAAIRGRGGSTYADSVKGRFTISRDNAKNTVYLQMNSLKPVDTAVYYCAAYARQRSNTIYYDYWGQGTQVTVSS	high polyreactivity
QFQLVESGGGLVQAGGSLRLSCAASGIFVGYTMGWYRQAPGKEREFVAAIRWTDGSTYYADSVKGRFTISRDNAKNTVYLQMNSLKPEDTAVYYCAADSHDPARYYYGDEVEDEYWGQGTQVTVSS	low polyreactivity
QFQLVESGGGLVQAGGSLRLSCAASGIIFGAYVMGWYRQAPGKERELVAVISWSSTSTYYADSVKGRFTISRDNAKNTVYLQMNSLKPEDTAVYYCNARYLRRGDYWGQGTQVTVSS	low polyreactivity
QFQLVESGGGLVQAGGSLRLSCAASGIIFTTYVMGWYRQAPGKERELVAAISRGGRTYYADSVKGRFTSSRDNAKNTVYLQMNSLKPEDTAVYYCARVAYKGYGEDDYWGQGTQVTVSS	high polyreactivity
QFQLVESGGGLVQAGGSLRLSCAASGIIFVSYAMGGYIQAPGKETEFVAGINWNGGSTYYADSVKGRFTISRDNAKNTVYLQMNSLKPEDTAVYYCNAENYRVRQRSSVKYDYWGHGTQVTVSS	low polyreactivity
QFQLVESGGGLVQAGGSLRLSCAASGITFQYYAMGWYRQAPGKERDFVAAISWRSGRTYYADSVKGRFTISRDNAKNTVYLQMNSLKPEDTEVYYCAAVVHIQRSTRDYWGQGTQVTVSS	high polyreactivity
QFQLVESGGGLVQAGGSLRLSCAASGLTFKYYGMGWYRQAPGKERELVATISSGGRTNYADSVKGRFTISRDNAKNTVYLQMNSLKPEDTEVYYCNRPRWYGGSPYYYWGQGTQVTVSS	high polyreactivity
QFQLVESGGGLVQAGGSLRLSCAASGRIFFSNAMGWYRQAPGKERELVASITGGDDTNYADSVKGRFTISRDNAKNSVYLQMNSLKPEDTAFYYCAARAIPSYRWVYRFAPKYDYWGQGTQVTVSS	low polyreactivity
QFQLVESGGGLVQAGGSLRLSCAASGRIFRYYSMGCYIQSPGKERELVAAITRGGSTNYADSVKGRFTISGDNANNNVYLQMNSLKPEDSAVYYCAVRGCYTWPTYNYWGHGTQVTVSS	high polyreactivity
QFQLVESGGGLVQAGGSLRLSCAASGRIWWNAKGWYRQAPGNEREMVAAIRWSGGIKRYADSVKGRFTISRDNAKNTVYLQMNSLKREDTAVYYCDARLGGSIRSKFDYWGQGTQVTVSS	high polyreactivity
QFQLVESGGGLVQAGGSLRLSCAASGRTFWWYAMGWYRQAPGKERELVAAITSRGTTYYADSVKGRFTISRDNAKNTVYLQMNSLKPEDTAVYYCNAVQATRYTDYDYWGQGTQVTVSS	high polyreactivity
